Data as given in patent publication US20160297884A1 (Pfizer, published 2016).
Numbering of substitutions follows the chain as printed.

Assays:
Human BCMA = target: T1, Human BCMA (human, UniProt Q02223 1-54, limits assumed); experiment: SPR, IgG immobilised, human BCMA analyte
T1 construct: also called huBCMA; B-cell maturation antigen
T1 sequence (looked up): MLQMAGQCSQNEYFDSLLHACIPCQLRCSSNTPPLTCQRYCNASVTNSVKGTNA
Procedure: (§1) All experiments were performed on a Bio-Rad Proteon XPR36 surface Plasmon resonance biosensor (Bio-Rad, Hercules, Calif.). […] The analysis temperature for the immobilization was 25° C. and the running buffer was HBS-T+(10 mM HEPES, 150 mM NaCl, 0.05% Tween-20, pH 7.4). Channels were activated in the analyte (horizontal) direction by injecting a mixture of 1 mM ECD and 0.25 mM NHS for 3 minutes at a flow rate of 30 μL/min. IgGs were immobilized on the activated spots by injecting them in the ligand (vertical) direction at 20 μg/mL in 10 mM Acetate pH 4.5 buffer for 1.5 minutes at […]. The activated surfaces were blocked by injecting 1M ethanolamine, pH 8.5 in the analyte direction for 3 minutes at 30 μL/min.
(§2) The analysis temperature for the BCMA binding analysis was 37° C. or 25° C. in a running buffer of HBS-T+, supplemented with 1 mg/mL BSA. A kinetic titration method was employed for the interaction analysis as described in Abdiche, et al. Human BCMA (huBCMA) or cynomolgus monkey BCMA (cyBCMA) analyte was injected in the analyte direction using a series of injections from low to high concentration. The concentrations used were 0.08 nM, 0.4 nM, 2 nM, 10 nM and 50 nM (a 5-membered series, with a 5-fold dilution factor and top concentration of 50 nM). The association time for a given analyte dilution was two minutes. Immediately after the 50 nM BCMA injection, dissociation was monitored for 2 hours.
(§3) The sensorgrams were double-referenced and fit to a 1:1 Langmuir with mass transport kinetic titration model in BIAevaluation Software version 4.1.1 (GE Lifesciences, Piscataway, N.J.).

Cynomolgus monkey BCMA = target: T2, Cynomolgus monkey BCMA (cynomolgus monkey); experiment: SPR, IgG immobilised, cyno BCMA analyte
T2 construct: Soluble analyte in SPR; also called cyBCMA; Cyno BCMA
Procedure: as §1, §2, §3

B1: COMBO_Rd4_0.6nM_C09 (antibody, V domains shown)
VH: EVQLLESGGGLVQPGGSLRLSCAASGFTFSSYPMSWVRQAPGKGLEWVSAIGGSGGSLPYADSVKGRFTISRDNSKNTLYLQMNSLRAEDTAVYYCARYWPMDIWGQGTLVTVSS
VL: EIVLTQSPGTLSLSPGERATLSCRASQSVSSTYLAWYQQKPGQAPRLLMYDASIRATGIPDRFSGSGSGTDFTLTISRLEPEDFAVYYCQQYQEWPLTFGQGTKVEIK
notes: IgG
Kd (Human BCMA): 0.031 nM | koff (Human BCMA): 0.000319 s⁻¹ | kon (Human BCMA): 1.04e+07 M⁻¹ s⁻¹ | Kd (Cynomolgus monkey BCMA): 0.092 nM | koff (Cynomolgus monkey BCMA): 0.000346 s⁻¹ | kon (Cynomolgus monkey BCMA): 3.77e+06 M⁻¹ s⁻¹

B2: COMBO_Rd4_0.6nM_C11 (antibody, V domains shown)
VH: B1 VH with I51A, G52L, L58T, P59Y, D103S, I104L
VL: B1 VL with S31V, T32R, Q93G, E94S, L97I
notes: IgG
Kd (Human BCMA): 0.207 nM | koff (Human BCMA): 0.00106 s⁻¹ | kon (Human BCMA): 5.11e+06 M⁻¹ s⁻¹ | Kd (Cynomolgus monkey BCMA): 1.92 nM | koff (Cynomolgus monkey BCMA): 0.00423 s⁻¹ | kon (Cynomolgus monkey BCMA): 2.2e+06 M⁻¹ s⁻¹

B3: C01_Rd4_0.6nM_C06 (antibody, V domains shown)
VH: B1 VH with I104S
VL: B1 VL with Q27E, S28A, S30P, M49I, I54S, T57P, Q93S, E94A, W95F
notes: IgG
Kd (Human BCMA): 0.847 nM | koff (Human BCMA): 0.0154 s⁻¹ | kon (Human BCMA): 1.82e+07 M⁻¹ s⁻¹ | Kd (Cynomolgus monkey BCMA): 1.95 nM | koff (Cynomolgus monkey BCMA): 0.0121 s⁻¹ | kon (Cynomolgus monkey BCMA): 6.22e+06 M⁻¹ s⁻¹

B4: C01_Rd4_0.6nM_C03 (antibody, V domains shown)
VH: B1 VH with I104S
VL: B1 VL with Q27C, S28D, M49I, I54S, T57P, Q93M, E94R, W95S
notes: IgG
Kd (Human BCMA): 0.964 nM | koff (Human BCMA): 0.015 s⁻¹ | kon (Human BCMA): 1.55e+07 M⁻¹ s⁻¹ | Kd (Cynomolgus monkey BCMA): 2.53 nM | koff (Cynomolgus monkey BCMA): 0.0119 s⁻¹ | kon (Cynomolgus monkey BCMA): 4.72e+06 M⁻¹ s⁻¹

B5: A02_Rd4_6nM_C25 (antibody, V domains shown)
VH: B1 VH with P33A, S35N, G52S, G53D, L58R, P59W, D103T, I104P
VL: B1 VL with T32S, Q93L, E94D
notes: IgG
Kd (Human BCMA): 0.065 nM | koff (Human BCMA): 0.00018 s⁻¹ | kon (Human BCMA): 2.75e+06 M⁻¹ s⁻¹ | Kd (Cynomolgus monkey BCMA): 0.22 nM | koff (Cynomolgus monkey BCMA): 0.00033 s⁻¹ | kon (Cynomolgus monkey BCMA): 1.5e+06 M⁻¹ s⁻¹

B6: C01_Rd4_6nM_C26 (antibody, V domains shown)
VH: B1 VH with I104S
VL: B1 VL with S31A, T32L, M49I, I54S, T57P, Q93S, E94A
notes: IgG
Kd (Human BCMA): 0.09 nM | koff (Human BCMA): 0.00136 s⁻¹ | kon (Human BCMA): 1.5e+07 M⁻¹ s⁻¹ | Kd (Cynomolgus monkey BCMA): 0.419 nM | koff (Cynomolgus monkey BCMA): 0.00199 s⁻¹ | kon (Cynomolgus monkey BCMA): 4.75e+06 M⁻¹ s⁻¹

B7: C01_Rd4_6nM_C12 (antibody, V domains shown)
VH: B1 VH with S57W, L58S, P59Y, I104S
VL: B1 VL with R24W, A25L, M49I, I54S, T57P, Q93S
notes: IgG; also called PC1C12
Kd (Human BCMA): 0.535 nM | koff (Human BCMA): 0.00649 s⁻¹ | kon (Human BCMA): 1.21e+07 M⁻¹ s⁻¹ | Kd (Cynomolgus monkey BCMA): 0.82 nM | koff (Cynomolgus monkey BCMA): 0.0037 s⁻¹ | kon (Cynomolgus monkey BCMA): 4.51e+06 M⁻¹ s⁻¹

B8: COMBO_Rd4_0.6nM_C04 (antibody, V domains shown)
VH: B1 VH with I51H, G52I, L58T, P59Y, I104S
VL: B1 VL with E94S
notes: IgG
Kd (Human BCMA): 0.015 nM | koff (Human BCMA): 0.000158 s⁻¹ | kon (Human BCMA): 1.07e+07 M⁻¹ s⁻¹ | Kd (Cynomolgus monkey BCMA): 0.039 nM | koff (Cynomolgus monkey BCMA): 0.000137 s⁻¹ | kon (Cynomolgus monkey BCMA): 3.52e+06 M⁻¹ s⁻¹

B9: A02_Rd4_6nM_C19 (antibody, V domains shown)
VH: B1 VH with P33A, S35N, G52S, G53D, L58R, P59W, D103S, I104D
VL: B1 VL with S31V, T32L, Q93L, E94A
notes: IgG
Kd (Human BCMA): 0.049 nM | koff (Human BCMA): 0.000148 s⁻¹ | kon (Human BCMA): 3e+06 M⁻¹ s⁻¹ | Kd (Cynomolgus monkey BCMA): 0.26 nM | koff (Cynomolgus monkey BCMA): 0.000661 s⁻¹ | kon (Cynomolgus monkey BCMA): 2.54e+06 M⁻¹ s⁻¹

B10: A02_Rd4_6nM_C22 (antibody, V domains shown)
VH: B1 VH with P33A, S35N, I51V, G52L, G53D, L58T, P59Y, D103T, I104P
VL: B1 VL with T32S, E94V
notes: IgG
Kd (Human BCMA): 0.054 nM | koff (Human BCMA): 0.000182 s⁻¹ | kon (Human BCMA): 3.38e+06 M⁻¹ s⁻¹ | Kd (Cynomolgus monkey BCMA): 0.176 nM | koff (Cynomolgus monkey BCMA): 0.000324 s⁻¹ | kon (Cynomolgus monkey BCMA): 1.84e+06 M⁻¹ s⁻¹

B11: C01_Rd4_6nM_C10 (antibody, V domains shown)
VH: B1 VH with I104S
VL: B1 VL with T32V, M49I, I54S, T57P, Q93S, E94T
notes: IgG
Kd (Human BCMA): 0.162 nM | koff (Human BCMA): 0.00212 s⁻¹ | kon (Human BCMA): 1.31e+07 M⁻¹ s⁻¹ | Kd (Cynomolgus monkey BCMA): 0.493 nM | koff (Cynomolgus monkey BCMA): 0.00219 s⁻¹ | kon (Cynomolgus monkey BCMA): 4.44e+06 M⁻¹ s⁻¹

B12: A02_Rd4_6nM_C26 (antibody, V domains shown)
VH: B1 VH with P33A, S35N, G52S, G53D, L58T, P59Y, D103S, I104L
VL: B1 VL with T32L, E94V
notes: IgG
Kd (Human BCMA): 0.033 nM | koff (Human BCMA): 0.000139 s⁻¹ | kon (Human BCMA): 4.26e+06 M⁻¹ s⁻¹ | Kd (Cynomolgus monkey BCMA): 0.203 nM | koff (Cynomolgus monkey BCMA): 0.000448 s⁻¹ | kon (Cynomolgus monkey BCMA): 2.21e+06 M⁻¹ s⁻¹

B13: C01_Rd4_0.6nM_C09 (antibody, V domains shown)
VH: B1 VH with I104S
VL: B1 VL with T32L, Y33F, M49I, I54S, T57P, Q93S, E94A
notes: IgG
Kd (Human BCMA): 0.545 nM | koff (Human BCMA): 0.00825 s⁻¹ | kon (Human BCMA): 1.51e+07 M⁻¹ s⁻¹ | Kd (Cynomolgus monkey BCMA): 1.77 nM | koff (Cynomolgus monkey BCMA): 0.00936 s⁻¹ | kon (Cynomolgus monkey BCMA): 5.28e+06 M⁻¹ s⁻¹
